Consider 16 molecules from patent US20110098217A1 (INDIANA UNIVERSITY RESEARCH AND TECHNOLOGY, published 2011).

Assay [1] has as its target T1, human glucagon receptor (human, UniProt P47871 26-477). As to the kind of experiment: cell-based or functional assay.
Assay [2] has as its target T2, human GLP-1 receptor (human, UniProt P43220 24-463). Kind of assay: cell-based or functional assay.
Assay [3] has as its target T1, human glucagon receptor. Kind of assay: cell-based or functional assay. The source holds these as a separate data set.
Assay [4] concerns the target T2, human GLP-1 receptor. Kind of assay: cell-based or functional assay. The source holds these as a separate data set.
Assay [5] has as its target T1, human glucagon receptor. As to the kind of experiment: cell-based or functional assay. The source holds these as a separate data set.
Assay [6] deals with T1, human glucagon receptor. As to the kind of experiment: cell-based or functional assay. The source holds these as a separate data set.
Assay [7] addresses T1, human glucagon receptor. Kind of assay: SPA competition vs 125I-glucagon, receptor membranes.
Assay [8] deals with T1, human glucagon receptor. Described as above. The source holds these as a separate data set.

Read-outs that look alike come from different tables or passages of the source. Numbered stars: 1 amine (or outer) side, 2 acyl side, 3 side chain; on linkers, the order of the positions; unused ones are H or OH. Bridge positions count the residues as written; N and C are the ends. Square brackets hold non-standard residues; d marks the D form. Primed or numbered codes have the meaning given here. Side chains are listed from the residue outwards. Ends that are not written are not given here. CSA‑2 = Cys(S-CH2CH2COOH), S-(2-carboxyethyl)-L-cysteine, O=C([C@H](CSCCC(=O)[*:3])N[*:1])[*:2]; CSA‑1 = Cys(S-CH2COOH), S-carboxymethyl-L-cysteine, O=C([C@H](CSCC(=O)[*:3])N[*:1])[*:2]; Glu = Glu spacer between Lys side chain and the C16 fatty acid (EC16FA); PEG 20 kDa″ = 20 kDa polyethylene glycol (PEG); PEG 20 kDa = 20 kDa polyethylene glycol; PhLac = O=C(O)[C@@H](O)Cc1ccccc1; Aad = N[C@@H](CCCC(=O)O)C(=O)O; Mpa = O=C(O)CCS

What is called IC50 is the point on the concentration scale where inhibition reaches its midpoint. Low readings indicate higher potency, high ones lower potency.

T1 sequence (P47871 26-477): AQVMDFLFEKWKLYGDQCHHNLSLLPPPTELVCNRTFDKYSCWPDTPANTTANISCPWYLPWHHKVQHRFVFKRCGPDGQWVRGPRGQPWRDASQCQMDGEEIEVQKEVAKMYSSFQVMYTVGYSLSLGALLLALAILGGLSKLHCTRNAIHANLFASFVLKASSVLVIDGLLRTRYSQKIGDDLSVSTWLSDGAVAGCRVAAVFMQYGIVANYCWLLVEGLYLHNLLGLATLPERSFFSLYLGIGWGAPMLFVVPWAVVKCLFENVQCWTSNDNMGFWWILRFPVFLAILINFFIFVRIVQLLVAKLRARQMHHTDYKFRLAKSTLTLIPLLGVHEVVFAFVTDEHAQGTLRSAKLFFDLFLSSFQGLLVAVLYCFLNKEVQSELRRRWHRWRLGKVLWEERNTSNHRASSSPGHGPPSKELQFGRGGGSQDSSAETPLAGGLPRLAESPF

Consider [PhLac]TSDYSKYLDERRAKDFVQWLMDTGPGPGPGPGPC(PEG 20 kDa″)-NH2 (lactam 11-15) [[PLA6, E16K20(Lactam),D28,GP-C40(20 kDa)]G(6-40)], for which the “Glucagon antagonism IC50 (inhibit 0.2-0.8 nM glucagon)” value with human glucagon receptor [1] stood at 423 nM. Besides, the “GLP-1 agonism EC50” value in the assay with human GLP-1 receptor [2] was 43.6 nM.

In the case of [PhLac]TSDYSKYLDERRAQDFVC(PEG 20 kDa)WLMDT-NH2 (lactam 7-11) [[PLA6, K12E16(lactam), C24(20 kDa), D28]G(6-29)], the “Glucagon antagonism IC50 (inhibit 0.2-0.8 nM glucagon)” value in the assay with human glucagon receptor [1] is 628 nM. Besides, the “GLP-1 agonism EC50” value with human GLP-1 receptor [2] was 550 to 753 nM.

Take [PhLac]TSDYSKYLDERRAK([Glu-C16 fatty acid])DFVQWLMDT-NH2 [[PLA6, E16, K20(EC16FA), D28]G(6-29)]: the “Glucagon antagonism IC50 (inhibit 0.4 nM glucagon)” value in the assay with human glucagon receptor [3] was 576 nM. For the same molecule, the “GLP-1 agonism EC50” value with human GLP-1 receptor [4] is 1290 nM.

B1: [(CSA-1)^9]Glucagon(aa6-29)-NH2 (peptide)
peptide: FTS[CSA‑1]YSKYLDSRRAQDFVQWLMNT-NH2
modifications: N-terminus assumed
SMILES: CSCC[C@H](NC(=O)[C@H](CC(C)C)NC(=O)[C@H](Cc1c[nH]c2ccccc12)NC(=O)[C@H](CCC(N)=O)NC(=O)[C@@H](NC(=O)[C@H](Cc1ccccc1)NC(=O)[C@H](CC(=O)O)NC(=O)[C@H](CCC(N)=O)NC(=O)[C@H](C)NC(=O)[C@H](CCCNC(=N)N)NC(=O)[C@H](CCCNC(=N)N)NC(=O)[C@H](CO)NC(=O)[C@H](CC(=O)O)NC(=O)[C@H](CC(C)C)NC(=O)[C@H](Cc1ccc(O)cc1)NC(=O)[C@H](CCCCN)NC(=O)[C@H](CO)NC(=O)[C@H](Cc1ccc(O)cc1)NC(=O)[C@H](CSCC(=O)O)NC(=O)[C@H](CO)NC(=O)[C@@H](NC(=O)[C@@H](N)Cc1ccccc1)[C@@H](C)O)C(C)C)C(=O)N[C@@H](CC(N)=O)C(=O)N[C@H](C(N)=O)[C@@H](C)O
notes: also called [C^9(SCH2COOH)]Glucagon(aa6-29)-NH2; peptide no; 13
In the case of B1, in the assay with human glucagon receptor [5], the “cAMP IC50” value was found to be 101 nM and the “cAMP pA2” value was 6.68. For the same molecule, in the assay with human glucagon receptor [6], the “cAMP (I/A)50 inhibition index” value amounted to 506 and the “cAMP pA2” value is 6.68. Besides, the IC50 with human glucagon receptor [7] is 107 nM. Besides, in the assay with human glucagon receptor [8], the IC50 is 107 nM.

Take [PhLac](C16 fatty acid)TSDYSKYLDERRAKDFVQWLMDT-NH2 (lactam 11-15) [[C16FA-O-PLA6, E16K20(lactam),D28]G(6-29)]: the “Glucagon antagonism IC50 (inhibit 0.4 nM glucagon)” value with human glucagon receptor [3] came out at 338 nM. Besides, the “GLP-1 agonism EC50” value in the assay with human GLP-1 receptor [4] stood at 45.7 nM.

For [PhLac]TSDYSKYLDERRAKDFVK([Mpa-PEG 20 kDa″])WLMDT-NH2 (lactam 11-15) [[PLA6, E16K20(Lactam), K24(COCH2CH2S-20 kDa)] G(6-29)], the “Glucagon antagonism IC50 (inhibit 0.2-0.8 nM glucagon)” value in the assay with human glucagon receptor [1] lay in the range of 300 to 400 nM. Moreover, in the assay with human GLP-1 receptor [2], the “GLP-1 agonism EC50” value is 16 to 20 nM.

As for FTSDYSKYLDSRRAQDFVQWLMNT-NH2 (also called peptide no; 15) [Glucagon(aa6-29)-NH2], in the assay with human glucagon receptor [5], the “cAMP IC50” value was 346 nM and the “cAMP pA2” value was 6.94. Further, in the assay with human glucagon receptor [6], the “cAMP (I/A)50 inhibition index” value stood at 1730 and the “cAMP pA2” value worked out at 6.94. In the assay with human glucagon receptor [7], this molecule returned an IC50 of 1890 nM. Moreover, in the assay with human glucagon receptor [8], the IC50 amounted to 1670 nM.

B2: [Lys^9]Glucagon(aa6-29)-NH2 (peptide)
peptide: FTSKYSKYLDSRRAQDFVQWLMNT-NH2
notes: also called [K^9]Glucagon(aa6-29)-NH2; peptide no; 16
On to B2, for which, in the assay with human glucagon receptor [5], the “cAMP IC50” value is 398 nM and the “cAMP pA2” value is 6.58. For the same molecule, in the assay with human glucagon receptor [6], the “cAMP (I/A)50 inhibition index” value was 1990 and the “cAMP pA2” value was 6.58. The molecule further returned an IC50 in the assay with human glucagon receptor [7] of 5780 nM. The molecule further came in with an IC50 with human glucagon receptor [8] of 3240 nM.

B3: [hGlu^9]Glucagon(aa6-29)-NH2 (peptide)
peptide: FTS[Aad]YSKYLDSRRAQDFVQWLMNT-NH2
modifications: N-terminus assumed
SMILES: CSCC[C@H](NC(=O)[C@H](CC(C)C)NC(=O)[C@H](Cc1c[nH]c2ccccc12)NC(=O)[C@H](CCC(N)=O)NC(=O)[C@@H](NC(=O)[C@H](Cc1ccccc1)NC(=O)[C@H](CC(=O)O)NC(=O)[C@H](CCC(N)=O)NC(=O)[C@H](C)NC(=O)[C@H](CCCNC(=N)N)NC(=O)[C@H](CCCNC(=N)N)NC(=O)[C@H](CO)NC(=O)[C@H](CC(=O)O)NC(=O)[C@H](CC(C)C)NC(=O)[C@H](Cc1ccc(O)cc1)NC(=O)[C@H](CCCCN)NC(=O)[C@H](CO)NC(=O)[C@H](Cc1ccc(O)cc1)NC(=O)[C@H](CCCC(=O)O)NC(=O)[C@H](CO)NC(=O)[C@@H](NC(=O)[C@@H](N)Cc1ccccc1)[C@@H](C)O)C(C)C)C(=O)N[C@@H](CC(N)=O)C(=O)N[C@H](C(N)=O)[C@@H](C)O
notes: also called [hE^9]Glucagon(aa6-29)-NH2; peptide no; 12
Take B3: the “cAMP IC50” value in the assay with human glucagon receptor [5] was found to be 472 nM. For the same molecule, the “cAMP pA2” value with human glucagon receptor [5] and with human glucagon receptor [6] was 6.27 in each case. Further, in the assay with human glucagon receptor [6], the “cAMP (I/A)50 inhibition index” value was 2360. Besides, the IC50 with human glucagon receptor [7] and with human glucagon receptor [8] was 163 nM throughout.

Consider [PhLac]TSDYSKYLDERRAKDFVQWLMDTGPSSGAPPPSC(PEG 20 kDa″)-NH2 (lactam 11-15) [[PLA6, E16K20(Lactam), D28,CEX-C40(20 kDa)]G(6-40)], for which the “Glucagon antagonism IC50 (inhibit 0.2-0.8 nM glucagon)” value with human glucagon receptor [1] is 350 to 500 nM. Moreover, the “GLP-1 agonism EC50” value with human GLP-1 receptor [2] lay in the range of 75 to 100 nM.

Turning to [PhLac]TSDK([Glu-C16 fatty acid])SKYLDERRAKDFVQWLMDT-NH2 (lactam 11-15) [[PLA6, K10(EC16FA), E16K20(lactam),D28]G(6-29)], in the assay with human glucagon receptor [3], the “Glucagon antagonism IC50 (inhibit 0.4 nM glucagon)” value worked out at 31.1 nM. Also, in the assay with human GLP-1 receptor [4], the “GLP-1 agonism EC50” value was 129 nM.

B4: [(CSA-2)^9]Glucagon(aa6-29)-NH2 (peptide)
peptide: FTS[CSA‑2]YSKYLDSRRAQDFVQWLMNT-NH2
modifications: N-terminus assumed
SMILES: CSCC[C@H](NC(=O)[C@H](CC(C)C)NC(=O)[C@H](Cc1c[nH]c2ccccc12)NC(=O)[C@H](CCC(N)=O)NC(=O)[C@@H](NC(=O)[C@H](Cc1ccccc1)NC(=O)[C@H](CC(=O)O)NC(=O)[C@H](CCC(N)=O)NC(=O)[C@H](C)NC(=O)[C@H](CCCNC(=N)N)NC(=O)[C@H](CCCNC(=N)N)NC(=O)[C@H](CO)NC(=O)[C@H](CC(=O)O)NC(=O)[C@H](CC(C)C)NC(=O)[C@H](Cc1ccc(O)cc1)NC(=O)[C@H](CCCCN)NC(=O)[C@H](CO)NC(=O)[C@H](Cc1ccc(O)cc1)NC(=O)[C@H](CSCCC(=O)O)NC(=O)[C@H](CO)NC(=O)[C@@H](NC(=O)[C@@H](N)Cc1ccccc1)[C@@H](C)O)C(C)C)C(=O)N[C@@H](CC(N)=O)C(=O)N[C@H](C(N)=O)[C@@H](C)O
notes: also called [C^9(SCH2CH2COOH)]Glucagon (aa6-29)-NH2; peptide no; 14
Turning to B4, in the assay with human glucagon receptor [5], the “cAMP IC50” value was 116 nM and the “cAMP pA2” value came out at 6.64. Moreover, in the assay with human glucagon receptor [6], the “cAMP (I/A)50 inhibition index” value came to 580 and the “cAMP pA2” value was found to be 6.64. In the assay with human glucagon receptor [7], this molecule showed an IC50 of 146 nM. The same molecule came in with an IC50 with human glucagon receptor [8] of 146 nM.

Regarding LTFTSEYSKYLDSRRAQDFVQWLMNT-NH2 (also called peptide no) [[Leu^4, Glu^9]Glucagon(aa4-29)-NH2], the IC50 with human glucagon receptor [7] came to 36.4 nM.

For [PhLac]TSDYSKYLDERRAKDFVQWLMDGGPSSGAPPPSC(PEG 20 kDa″)-NH2 (lactam 11-15) [[PLA6, E16K20(Lactam),D28,G29, CEX-C40(20 kDa)]G(6-40)], in the assay with human glucagon receptor [1], the “Glucagon antagonism IC50 (inhibit 0.2-0.8 nM glucagon)” value turned out to be 335 nM. The “GLP-1 agonism EC50” value in the assay with human GLP-1 receptor [2] amounted to 180 nM.

As for [PhLac]TSDYSKYLDERRAKDFVK([3‑aminoprop‑1‑ynyl‑benzoic acid-Mpa-PEG 20 kDa])WLMDT-NH2 (lactam 11-15) [[PLA6,E16K20(Lactam), K24(rigid-S-20 kDa)]G(6-29)], the “Glucagon antagonism IC50 (inhibit 0.2-0.8 nM glucagon)” value with human glucagon receptor [1] was in the range of 393 to 620 nM. In addition, the “GLP-1 agonism EC50” value with human GLP-1 receptor [2] lay in the range of 1360 to 2680 nM.

As to [PhLac]TSDYSKYLDERRAKDFVK([Glu-C16 fatty acid])WLMDT-NH2 (lactam 11-15) [[PLA6, E16K20(lactam), K24(EC16FA), D28]G(6-29)], the “Glucagon antagonism IC50 (inhibit 0.4 nM glucagon)” value with human glucagon receptor [3] came to 372 nM. The “GLP-1 agonism EC50” value in the assay with human GLP-1 receptor [4] is 293 nM.
